US20250263481A1

Target: human CLDN18.2 expressed on cells (human)
Assay: cell-based or functional assay

- ADCC, FACS: Max (%): 8.3%
- ADCC, LDH: Max (%): 1.5%
Substance: Human IgG1 isotype antibody
- ADCC on KATOIII CLDN18.2 cells, LDH: max (% cytotoxity) (run A): 0.3%
- ADCC on KATOIII CLDN18.2 cells, LDH: max (% cytotoxity) (run B): -5.51%
- ADCC on KATOIII CLDN18.2 cells, LDH: max (% cytotoxity) (run C): -7.64%
- ADCC on NCI-N87 CLDN18.2 cells, LDH: max (% cytotoxity) (run A): -6.73%
- ADCC on NCI-N87 CLDN18.2 cells, LDH: max (% cytotoxity) (run B): -11.7%
- ADCC on NCI-N87 CLDN18.2 cells, LDH: max (% cytotoxity) (run C): -9.22%
- CDC on CT26 CLDN18.2 cells, LDH: max (% cytotoxity) (run A): 10.8%
- CDC on CT26 CLDN18.2 cells, LDH: max (% cytotoxity) (run B): -0.23%
- CDC on CT26 CLDN18.2 cells, LDH: max (% cytotoxity) (run C): -0.38%
- CDC on KATOIII CLDN18.2 cells, LDH: max (% cytotoxity) (run A): -0.85%
- CDC on KATOIII CLDN18.2 cells, LDH: max (% cytotoxity) (run B): -2.46%
- CDC on KATOIII CLDN18.2 cells, LDH: max (% cytotoxity) (run C): -1.53%
